Data as given in patent US12410262B2, “Peptide conjugates of cytotoxins as therapeutics” (Cybrexa 2, Inc., priority 2019, dated 2025).

Key:
HCT116 xenografts = assay: Tumor and bone marrow pharmacokinetics in a mouse model; assay type: in vivo, athymic nude Foxn^nu mice; details: mouse bearing HCT116 xenograft, single IP dose 10 mg/kg
Experimental: Six-week-old female athymic nude Foxn^nu mice were obtained from Taconic Labs (Cat #NCRNU-F) and were housed 5 per cage on Alpha-Dri bedding in a disposable caging system (Innovive). Human HCT116 cancer cells derived from colorectal carcinoma were diluted 1:1 in Phenol Red-free Matrigel and subcutaneously implanted into the left flank of each mouse at a density of 2.5×10^6 cells in 100 μL. When xenografts reached a minimal volume of 300 mm^3, mice were administered a single intraperitoneal injection of 10 mg/kg Compound 11 prepared in a vehicle of 5% mannitol in citrate. Tumor and bone marrow samples were collected from fed, anesthetized mice at 1, 2, 4, 8, 16, 24, 32 and 48 hours after compound administration. Total peptide concentrations in tumor and bone marrow were determined via ELISA.
96-well plates were coated with 100 μL/well of 0.1 μM BSA-labelled peptide prepared in 0.2 M Carbonate-Bicarbonate Buffer, pH 9.4 and incubated overnight at 4° C. Plates were washed 4× with an ELISA wash buffer (PBS+0.05% Tween 20), incubated for 2 hours at room temperature with Blocking Buffer (PBS+5% dry milk+0.05% Tween 20) (300 μL/well) and washed again 4× with ELISA wash buffer. […] Luminescence was read from the plate on a BioTek Cytation 5 plate reader.

[1] = Bone marrow toxicity study in a mouse model; assay type: in vivo, athymic nude Foxn^nu mice; details: 2.6 and 5.2 μmoles/kg (10, 20 mg/kg) IP once daily for 4 days
Experimental: Six-week-old female athymic nude Foxn^nu mice were obtained from Taconic Labs (Cat #NCRNU-F) and were housed 5 per cage on Alpha-Dri bedding in a disposable caging system (Innovive). Human HCT116 cancer cells derived from colorectal carcinoma were diluted 1:1 in Phenol Red-free Matrigel and subcutaneously implanted into the left flank of each mouse at a density of 2.5×10^6 cells in 100 μL. When xenografts reached a minimal volume of 200 mm^3, mice were administered intraperitoneal doses of vehicle or 2.6 or 5.2 μmoles/kg of either unconjugated exatecan (equivalent to 1.15 or 2.3 mg/kg exatecan, respectively) or Compound 11 (equivalent to 10 or 20 mg/kg Compound 11, respectively). Compounds were administered once daily for 4 days.
Tumor bearing mice were euthanized by cervical dislocation 6 hours after the last dose. Femurs were removed, and bone marrow was extruded into 50 mL conical tubes by flushing the bones with a 23-gauge needle fitted on a 5 cc syringe containing PBS+2% fetal bovine serum. Bone marrow was homogenized by gentle pipetting and filtered through 100 μm nylon mesh filters and cells were pelleted by centrifugation at 1200 rpm for 5 minutes at 4° C. Red blood cells were lysed with 3 mL of lysis buffer for 2 minutes at room temperature. […] Cell pellets were suspended in 5 mL of PBS and cell count was assessed by trypan blue exclusion. […]

HCT116 = assay: cells; assay type: cell-based, human; details: 96 h
Procedure, shortened: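 DLD-1 WT (2500/well), FaDu and HeLa (5000/well) and HCT116 (3000/well) were grown in 10% FBS media and dosed in triplicate 24 h after plating. After 96 h of drug exposure at 37 °C, cells were fixed, Hoechst-stained and counted by imaging; percent growth delay was calculated versus untreated controls.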

[2] = Glutathione cleavage study; assay type: in vitro ADME; details: Tris buffer with 10 mM glutathione, Glutathione Challenge (10 mM), 100 μM conjugate, Tris pH 7.5, 37° C.
Procedure, shortened: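 Conjugate stocks at 20 mM in 100% DMSO were diluted in 100 mM Tris, pH 7.5, to a final 100 μM. Freshly made glutathione was added to 10 mM, and samples were incubated at 37° C. for up to 24 hrs. Samples were extracted with phosphoric acid and acetonitrile/0.1% TFA, centrifuged, and analyzed by HPLC, with peak areas compared to the time-0 conjugate peak.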

Plasma stability studies = assay type: in vitro ADME; details: rat plasma, 100 μM conjugate, 37° C.
Procedure, shortened: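 Conjugate at 100 μM final in rat plasma (diluted from DMSO stock via 100 mM Tris, pH 7.5), incubated at 37° C for up to 24 h, sampled at 0, 4 and 24 h. Samples acid/acetonitrile-extracted and analysed by HPLC; remaining conjugate expressed as peak area relative to time 0 ×100.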

For `CC[C@@]1(O)C(=O)OCc2c1cc1n(c2=O)Cc2c-1nc1cc(F)c(C)c3c1c2[C@@H](NC(=O)O[C@H]1CCCC[C@@H]1SSC[C@H](NC(=O)[C@H](Cc1c[nH]c2ccccc12)NC(=O)[C@H](CC(C)C)NC(=O)[C@H](CC(C)C)NC(=O)[C@H](CC(=O)O)NC(=O)[C@H](CC(C)C)NC(=O)[C@H](CC(C)C)NC(=O)[C@H](CC(C)C)NC(=O)[C@@H](NC(=O)[C@H](CC(=O)O)NC(=O)[C@@H](NC(=O)[C@@H]1CCCN1C(=O)[C@H](Cc1ccccc1)NC(=O)[C@H](CC(C)C)NC(=O)[C@H](CC(C)C)NC(=O)[C@H](CC(=O)O)NC(=O)[C@H](CC(C)C)NC(=O)[C@H](Cc1ccc(O)cc1)NC(=O)[C@H](C)NC(=O)[C@H](CCCNC(=N)N)NC(=O)[C@H](Cc1c[nH]c2ccccc12)NC(=O)[C@@H]1CCCN1C(=O)[C@H](CC(N)=O)NC(=O)[C@H](CCC(N)=O)NC(=O)[C@H](CC(=O)O)NC(=O)[C@H](CC(=O)O)NC(=O)[C@H](C)N)[C@@H](C)O)[C@@H](C)O)C(=O)NCC(=O)O)CC3` [Compound 11], the “peptide concentration in tumor and bone marrow (tumor targeting)” value (HCT116 xenografts) was “effectively targets tumors”, the “bone marrow toxicity (total bone marrow counts from femurs)” value [1] was “did not display the bone marrow toxicity” and the IC50 (HCT116) was 22.6 nM. The remaining at 4 h, 100 µM ([2]; 4 h) was 50.1%, the remaining at 24 h, 100 µM ([2]; 24 h) was 10.2% and the remaining at 4 h, 100 µM (Plasma stability studies; 4 hrs) was 108%. For the same compound, the remaining at 24 h, 100 µM (Plasma stability studies; 24 hrs) was 107%.
